Experimental data from paper PMC12212125, “Constitutively active Arabidopsis cryptochrome two alleles identified using yeast selection and deep mutational scanning” (The Journal of Biological Chemistry, 2025).

B1: Arabidopsis thaliana cryptochrome 2 (CRY2, UniProt Q96524), residues 1-535 fused after the Gal4 DNA-binding domain (Gal4BD-CRY2(535)); mutagenized window 321-412, Q96524 (parent)
chain: MKMDKKTIVWFRRDLRIEDNPALAAAAHEGSVFPVFIWCPEEEGQFYPGRASRWWMKQSLAHLSQSLKALGSDLTLIKTHNTISAILDCIRVTGATKVVFNHLYDPVSLVRDHTVKEKLVERGISVQSYNGDLLYEPWEIYCEKGKPFTSFNSYWKKCLDMSIESVMLPPPWRLMPITAAAEAIWACSIEELGLENEAEKPSNALLTRAWSPGWSNADKLLNEFIEKQLIDYAKNSKKVVGNSTSLLSPYLHFGEISVRHVFQCARMKQIIWARDKNSEGEESADLFLRGIGLREYSRYICFNFPFTHEQSLLSHLRFFPWDADVDKFKAWRQGRTGYPLVDAGMRELWATGWMHNRIRVIVSSFAVKFLLLPWKWGMKYFWDTLLDADLECDILGWQYISGSIPDGHELDRLDNPALQGAKYDPEGEYIRQWLPELARLPTEWIHHPWDAPLTVLKASGVELGTNYAKPIVDIDTARELLAKAISRTREAQIMIGAAPDEIVADSFEALGANTIKEPGLCPSVSSNDQQVPSAV

Variants of: B1
Experiment: yeast two-hybrid growth selection (MaV203; Gal4BD-CRY2(1-535) library x Gal4AD-CIB1; URA3 reporter on SC -Trp/-Leu/-Ura) in the dark, deep sequencing before and after selection, Enrich2 scoring; three independent screens (one at 48 h, two …)
Conditions: with CIB1 (CRYPTOCHROME-INTERACTING BASIC-HELIX-LOOP-HELIX 1), dark (no blue light), screens 1, 3 and 4, Svar > 0 = enriched under dark selection for CRY2-CIB1 two-hybrid growth (URA3 reporter), < 0 = depleted, relative to wild type (whose scores are 0). 'The Enrich2 software calculates, parent: 0, not an affinity, scale: Enrich2 score, numbering: uniprot, sequence starts at 1

First: L348H
Second: L348F
The enrichment of the first is lower: -1.52 for the first, 2.98 for the second.

Going from L348P to L348R, the enrichment rises from -1.54 to -1.14.

Compared with L348I, V367E is lower in enrichment: -0.199 for the first, -0.759 for the second.

Compared with V367L, V367M is lower in enrichment: 1.55 for the first, 1.21 for the second.

Compared with V367G, V367A is lower in enrichment: -0.377 for the first, -0.78 for the second.

First: L370P
Second: L370I
The enrichment of the first is lower: -1.4 for the first, -0.966 for the second.

First: L370R
Second: L370H
The enrichment of the first is higher: 0.499 for the first, -0.964 for the second.

First: W349C
Second: W349R
The enrichment of the first is lower: 0.242 for the first, 0.599 for the second.

Going from W349G to W349S, the enrichment rises from 0.303 to 0.756.

First: A343T
Second: A343P
The enrichment of the first is higher: -0.823 for the first, -2.1 for the second.

Compared with A343D, A343G is lower in enrichment: -0.747 for the first, -0.899 for the second.

Compared with G352E, G352A is lower in enrichment: -0.327 for the first, -1.47 for the second.

Going from G352R to V360L, the enrichment rises from -0.844 to 0.412.

First: V360G
Second: V360A
The enrichment of the first is lower: -1.05 for the first, 0.0306 for the second.

Compared with V360E, F369S is lower in enrichment: 0.367 for the first, -0.00513 for the second.

Going from F369T to F369C, the enrichment rises from -2.07 to 0.578.

Going from F369I to F369V, the enrichment rises from -0.158 to 1.03.

Going from F369L to N356S, the enrichment falls from 0.468 to 0.0584.

Going from N356I to N356Y, the enrichment rises from -0.473 to 0.824.

Going from N356K to N356H, the enrichment rises from -0.299 to 0.0591.

First: N356D
Second: N356T
The enrichment of the first is higher: 2.44 for the first, 0.0153 for the second.

Compared with W353L, W353C is higher in enrichment: -0.339 for the first, -0.321 for the second.

First: W353S
Second: W353R
The enrichment of the first is higher: -0.64 for the first, -1.15 for the second.

First: W353G
Second: A366T
The enrichment of the first is lower: -0.0561 for the first, 1 for the second.

First: A366V
Second: A366D
The enrichment of the first is higher: 2.13 for the first, -0.566 for the second.

Compared with A366P, I361V is higher in enrichment: -1.03 for the first, -0.287 for the second.

Going from I361T to I361L, the enrichment rises from -0.646 to 0.823.

First: I361S
Second: I361F
The enrichment of the first is lower: -0.712 for the first, -0.00476 for the second.

Going from I361N to I361M, the enrichment rises from -1.11 to -0.375.

First: E347D
Second: E347A
The enrichment of the first is lower: -0.854 for the first, 0.457 for the second.

First: E347V
Second: E347G
The enrichment of the first is lower: -1.41 for the first, -1.39 for the second.

Compared with E347K, P339Q is higher in enrichment: -1.6 for the first, -1.15 for the second.

Compared with P339T, P373L is higher in enrichment: -0.66 for the first, -0.618 for the second.

Compared with P373Q, P373T is higher in enrichment: -0.644 for the first, 0.0155 for the second.

Compared with P373S, D342G is lower in enrichment: -0.52 for the first, -1.84 for the second.

Going from D342V to D342A, the enrichment rises from -1.71 to -0.75.

First: D342N
Second: D342E
The enrichment of the first is higher: -0.898 for the first, -1.69 for the second.

Compared with D342Y, M354T is higher in enrichment: -1.02 for the first, 0.533 for the second.

Compared with M354K, M354L is higher in enrichment: -1.63 for the first, 0.399 for the second.

Compared with M354R, M354V is higher in enrichment: -1.57 for the first, 0.0609 for the second.

First: M354I
Second: T351P
The enrichment of the first is higher: 0.689 for the first, -0.191 for the second.

First: T351N
Second: T351A
The enrichment of the first is higher: -0.315 for the first, -1.04 for the second.

First: T351S
Second: A350D
The enrichment of the first is higher: -0.0139 for the first, -0.775 for the second.

Going from A350S to A350P, the enrichment falls from 0.303 to -1.4.

Going from A350V to A350G, the enrichment rises from -0.0426 to 0.232.

First: A350T
Second: V362I
The enrichment of the first is lower: -0.108 for the first, 0.151 for the second.

Compared with V362A, V362D is lower in enrichment: -0.304 for the first, -1.36 for the second.

Going from V362G to I358M, the enrichment rises from -1.16 to 0.739.

First: I358V
Second: I358R
The enrichment of the first is higher: 0.345 for the first, -0.0561 for the second.

First: I358T
Second: I358L
The enrichment of the first is lower: -0.414 for the first, 0.903 for the second.

Compared with I358K, M345L is higher in enrichment: -1.34 for the first, -0.395 for the second.

Going from M345T to M345K, the enrichment rises from -1.83 to -1.43.

Going from M345I to M345R, the enrichment falls from -0.745 to -1.12.

First: M345V
Second: W374C
The enrichment of the first is lower: -1.49 for the first, 1.8 for the second.

Going from W374L to W374G, the enrichment falls from 1.65 to 0.75.

Going from W374R to H355D, the enrichment falls from 1.5 to -1.37.

Compared with H355L, H355P is higher in enrichment: -0.0587 for the first, 0.249 for the second.

First: H355R
Second: H355Q
The enrichment of the first is higher: 0.547 for the first, -0.322 for the second.

Compared with H355Y, V341G is lower in enrichment: -0.714 for the first, -1.65 for the second.

First: V341E
Second: V341L
The enrichment of the first is lower: -1.64 for the first, -1.04 for the second.

First: V341M
Second: V341A
The enrichment of the first is higher: -0.679 for the first, -1.68 for the second.

Going from R357G to R357S, the enrichment falls from 2.16 to 2.1.

Going from R357I to R357K, the enrichment rises from -0.511 to 0.845.

Compared with L372H, L372I is higher in enrichment: -1.45 for the first, -0.44 for the second.

Going from L372R to L372P, the enrichment falls from 0.499 to -1.5.

Compared with L372F, L371I is lower in enrichment: 0.987 for the first, -0.7 for the second.

Compared with L371S, L371H is higher in enrichment: 1.98 for the first, 2.16 for the second.

First: L371P
Second: L371F
The enrichment of the first is lower: -1.4 for the first, 3.11 for the second.

Going from L371V to L371R, the enrichment rises from 1.25 to 1.98.

First: G344E
Second: G344R
The enrichment of the first is lower: -0.724 for the first, -0.722 for the second.

Compared with G344V, K375R is higher in enrichment: -1.21 for the first, -0.0254 for the second.

First: K375S
Second: K375Q
The enrichment of the first is higher: 0.796 for the first, 0.228 for the second.

Going from K375E to K375I, the enrichment falls from 2.2 to 0.307.

Compared with R346K, R346I is lower in enrichment: 0.452 for the first, -1.1 for the second.

First: R346G
Second: R346S
The enrichment of the first is lower: -1.54 for the first, -1.36 for the second.

Compared with R359S, R359I is lower in enrichment: -0.603 for the first, -0.665 for the second.

Going from R359G to K368E, the enrichment rises from -0.386 to 2.88.

First: K368R
Second: K368T
The enrichment of the first is lower: 0.246 for the first, 2.52 for the second.

First: K368V
Second: K368Q
The enrichment of the first is lower: 1.84 for the first, 2.29 for the second.

Compared with K368N, K368S is lower in enrichment: 2.25 for the first, 1.76 for the second.

Compared with K368D, K368M is lower in enrichment: 3.06 for the first, 2.28 for the second.

First: L340F
Second: L340M
The enrichment of the first is lower: -1.05 for the first, 0.444 for the second.

Compared with L340V, L340S is lower in enrichment: -0.561 for the first, -1.47 for the second.

L340W showed an enrichment of -1.48.
